Results as given in patent US20220041715A1.
Read-outs that look alike come from different tables or passages of the source.

What was measured:
HCoV-229E S1 (HCoV-229E) = HCoV-229E S1 (HCoV-229E) (UniProt P15423); assay: ELISA
HCoV-NL63 S1 (HCoV-NL63) = HCoV-NL63 S1 (HCoV-NL63) (UniProt Q6Q1S2); assay: ELISA
MERS CoV S1 (MERS CoV) = MERS CoV S1 (MERS CoV) (UniProt K9N5Q8); assay: ELISA
SARS CoV RBD (SARS-CoV) = SARS CoV RBD (SARS-CoV) (UniProt P59594); assay: ELISA
[1] = molecular target: SARS-CoV-2 receptor binding domain (RBD) (SARS-CoV-2) (UniProt P0DTC2); assay: ELISA
[2] = molecular target: SARS-CoV-2 spike S1 (SARS-CoV-2) (UniProt P0DTC2); assay: ELISA
[3] = molecular target: SARS-CoV-2 receptor binding domain (RBD) (SARS-CoV-2) (UniProt P0DTC2); assay: ELISA; remark: listed apart in the source
[4] = molecular target: SARS-CoV-2 spike on GFP reporter pseudotype virus (Wuhan-Hu-1) (SARS-CoV-2) (UniProt P0DTC2); assay: cell-based or functional assay
[5] = molecular target: SARS-CoV-2 receptor binding domain (RBD) (SARS-CoV-2) (UniProt P0DTC2); assay: RBD:ACE2 blocking ELISA (RBD coated, ACE2-His)

Substance	EC50 (HCoV-229E S1 (HCoV-229E))	EC50 (HCoV-NL63 S1 (HCoV-NL63))	EC50 (MERS CoV S1 (MERS CoV))	EC50 (SARS CoV RBD (SARS-CoV))	EC50 [1]	peak OD signal [1]	EC50 [2]	peak OD signal [2]	EC50 [3]	CoV-2 pseudotype neutralization IC50 [4]	IC50 [5]
IVIG (Gamunex; Grifols) (antibody)	96 µg/mL	140 µg/mL	1330 µg/mL	1280 µg/mL	1270 µg/mL	2.26 OD	1410 µg/mL	1.99 OD	1250 µg/mL		
rCIG (recombinant coronavirus-2 immune globulin; recombinant anti-coronavirus 19 hyperimmune gammaglobulin) (antibody)				0.6 µg/mL	0.1 µg/mL		0.092 µg/mL			0.43 µg/mL	2.2 µg/mL
